The DeepSol protein solubility set

Test: soluble on expression in E. coli; label from the status in PepcDB or PDB records

| Sequence | soluble on expression in E. coli |
| --- | --- |
| MAATITDDIVATVLESIEEKSYEDEKEKAGMIKDEANQFFKDQVYDVAADLYSVAIEIHPTAVLYGNRAQAYLKKELYGSALEDADNAIAIDPSYVKGFYRRATANMALGRFKKALTDYQAVVKVCPNDKDARAKFDECSKIVRRQKFEAAISTDHDKKTVAETLDINAMAIEDSYDGPRLEDKITKEFVLQLIKTFKNQQKLHKKYAFKMLLEFYNYVKSLPTMVEITVPTGKKFTICGDVHGQFYDLCNIFEINGYPSETNPYLFNGDFVDRGSFSVETIFTMIGFKLLYPNHFFMSRGNHESDVMNKMYGFEGEVKAKYTQQMCDMFTETFCWLPLCHLINEKIFVCHGGLFKEDGVTLEDIRKTDRNRQPPDEGIMCDLLWEKNWKNLKILYPDGKINKNSNCQPKTCKNASDPQPINGRSPSKRGVGCQFGPDVTSKWCETNGIEYVVRSHEVKPEGYEMHHNGQCFTVFSAPNYCDQMNNKGAFITITGDNLTPRFTPFDAVPHPKLPPMAYANSLFGFN | not soluble |
| GPGSMAKSSRSKWKKMHRRQRAQAEATNTVKRICLLNKKLKLTVKGGISAVPPQEPEKRFHFLNPVLDSRVPNTRKNLNNNYRAELNHVEYDYTKPLKLAPPKTNMYGKTDVDAPHPMTVMYETIDADTPLAGHALTKADMERLARRQAQQESEASAAVADAEKDASKEDGDNADDGPEEYVFGMEDAAPRRARGQHKTSAKKKGSVAPKALKGAASASVGASSSVSETGSSSRMLAAAAAAMTNEEEEADHRTRNGGVTAVNKIASMQTMRKKNGTMVSAGGASKMKKVGQLGGSSGTRVVSSGGKVARKDVGNAKSGSKR | soluble |
| MGSDKIHHHHHHMNYLRLNNITKRFGSFIANDNINLSVASGSIHAILGENGAGKSTLMNIISGLYQPDAGEIYLQEQPIKITSPNEAIKLGIGMIYQHFMLIPKLTVTENIILGIEKTWRLNLEDKQQKIAALSQAYGLEIDPTAKVENLSVGAQQRVEILKVLYRQAKLLILDEPTAVLTPPEVESLIAILRQLASAGNTIIFISHKLEEVMNLCDSVTVLRQGKVVATTSTEAATSQQLATLMVGREVALQLNKSPTLPGEIILSVQNLQVADERNILAVNNVSFELRAGEILGIAGVDGNGQRELADAIAFVRTIKQGKIEFTPKHSSVGYIPEDRQTMGLVLQFSIAQNLILKAFKYLPFCRRFLLQQEAIANRAQAAMQEFDIRASGKDILVSQLSGGNQQKVVLARELALTPALIIAMQPTRGLDVGATIAVQSRILTERDRGAAILYISTELEEVMAMSDRIAVIYRGEFVAILDAATAKVEEIGLLMAGGIN | not soluble |
| MPVANDAPGVDIEGTDADAESGDLPINELFQSLQGEGRLAGVPSVFVRTSGCNLRCWFCDSYHTSWEPTHDWFTVDDVLAAIEEYDANHVVLTGGEPLIHDSSEDLLARLTDRGYHTTVETNGTVVPDAPIDLASVSPKLASSTPTADRDPDGNGEWADRHEERRLDVPTLAELVETYDTQLKFVVTGREDMAEIERLLKRLRDAASTCVRDDDVLLMPEGQTRDQLEATRETVADLALEHGYRYTPRLHVDLWNDAPGT | not soluble |
| YTPPGRLGDESSGPRTDPRFSPAMVEALATFGLDAVAAAPPVSASDDLPTVLAAVGASHDGFQAVYDSIALDLPTDRDDVETSTETILGVDGNEITLHVFRPAGVEGVLPGLVYTHGGGMTILTTDNRVHRRWCTDLAAAGSVVVMVDFRNAWTAEGHHPFPSGVEDCLAAVLWVDEHRESLGLSGVVVQGESGGGNLAIATTLLAKRRGRLDAIDGVYASIPYISGGYAWDHERRLTELPSLVENDGYFIENGGMALLVRAYDPTGEHAEDPIAWPYFASEDELRGLPPFVVAVNELDPLRDEGIAFARRLARAGVDVAARVNIGLVHGADVIFRHWLPAALESTVRDVAGFAADRARLR | soluble |
| ERSIGFDGVMYFYSDTEKIRDAAFEAALQDQLEWKIEGLKPYVIPADKTLSDRICREDILRGVTIAANGFYGPQGRRLRLPLKDEDLNRKIQAFDFNGSRITNYEMESSSLAGLAALMGHEAITVCCIIAGRKSEKMNTSYQGSIEGLIDLVLERI | not soluble |
| MAHHHHHHMSSSDLIKEDDYVFISGRGLNKIVQIKKDVTVRLGRSGAALATTLIGIRYGGVCHLDHARKKFVESDEYPDLDITEVGDGEEVKDNRDLVDDNTNQQLSNDEVAAIRRDKGLDELLQALVEKSASYRTKTNFAQEKYLKKKQKKYGTLFKVERVTVDNLAELHVPTINPSDNTSEDARCLRLRADTVALILHHSDVHHNSRVILYEKTNGVLPASLLTRMSDEGRIFQILDKNAQPSPTTAVKVLKLPLVKERWKAVPRNRGFLEGLEEPDKDSARDTAEAAEKNAAGAAAGKGLQRQDICASSTQWVKGLEARQLLLESSADSLVICDDEAPQRAVADLLPFLAFGGHIVVYSPFLEDLTGIFLALRDDCVNLQISETWYRHHQVLPKRTHPTVNMSTAAGYLLTAIKVCRNPAAPRLTAAVTAPALSATTHAGHKRSATEELNGMASKKSATREASDEGNAN | not soluble |
| MGSDKIHHHHHHMQGKKFISPGAWFSMNYPSDWNEFEDGEGSFLFYNPDVWTGNFRISAFKGNASYGKDAIRQELKENDSASLVKIGTWDCAYSKEMFQEEGTYYTSHLWITGTGNIAFECSFTVPKGGSAKEAEEVIATLEARKEGEKYPAELIPVRLSEIYQINEGYEWVVSTVKQELKKDFQGVEEDLEKIQQVIDSGKISPKKKDEWLAIGITVCAILTNEVEGMEWKTLIDGNREVPVLEYQGRTIDPMKIAWSKVKAGQPCNIAEAYQSAIDHH | not soluble |
| MKAEYLQRFGGIARLYGQSALRSFSQAKVCVVGIGGVGSWAAEALARAGINQITLIDMDDICITNTNRQIHAMQGTVGRLKTEVMAERIRAINPDCEVIEVDDFVTADNLAEHIKREFDYVVDAIDSVKAKVALIAFCKRNKIPVIVAGGAGGQMDPTQITVADLAKTIQDPLAAKVRSDLRRLHNFSKNPARKFGVECVFSTEQLSYPDGNGGTCQAKAASDGNMKMDCASGFGAVTPVTATFGLVAASRVLKKIAERGARAEKEAGNEEAGSIGEA | soluble |
| MLFMIEVEIFPHRYLKASTTEKFLNKIYDLKTVERVVIHGQPLPKVITYGPARGLPVNHTERKIIHVKGVPVELTVMAGRFWITLSDDSELDKLDEICKEMFPFGYNLRVGKFLKDRPTVTDYIKYGEDGVFLINEMDRRLIGMVDPRSRMANLEHHHHHH | not soluble |
| MSSEKRVGMVEKSNNKRQRVNQVPVFSINDHHDVLVEILRRLDGSSLCSAACVCRLWSAVARNDSIWEELCFRQVSPRPSLSLRSVVSALGGYRCLYFLCIRPVLARLPKLLWTRDQLQLSLSLYCVHYYERLYVGAWLGDAPPSSLIFLRKPVNVV | soluble |
| MAHHHHHHMVTLNSTKPQVVIEASGVPTIQTSSITSPVVLTTPLGKSMYSSYSYSNPVSSSYSSSHHNECEYNWERVSTKPSQSTQHGEYMKTFEVPTGLYYETLPLKRNTNNIFEVTPSKEELEKINYNPRIEVYSTCNFVIIMMDLPGVSKENLKVELENGVLKIFGHKYKVPLEELQTEHEYHTKIIERVGEYYFCKMFQMPPVFSDGQSISCTLRDGELTFKMLASDLRAQKRVVEVQS | not soluble |
| MLCIDSSRDLTYGVVMTFKVMEFQKGRLQNLYWKRDVCASCKGNQNFVCLKKQVCAIRTPSCKGRGGSVGCSLGIQLAFSGTDKHLAVLNSWYEVDNLKQYSLYGLYSNLKSSLTNQLNNFF | soluble |
| MAATARRGWGAAAVAAGLRRRFCHKLKNPYTIKKQPLHQFVQRPLFPLPAAFYHPVRYMFIQTQDTPNPNSLKFIPGKPVLETRTMDFPTPAAAFRSPLARQLFRIEGVKSVFFGPDFITVTKENEELDWNLLKPDIYATIMDFFASGLPLVTEETPSGEAGSEEDDEVVAMIKELLDTRIRPTVQEDGGDVIYKGFEDGIVQLKLQGSCTSCPSSIITLKNGIQNMLQFYIPEVEGVEQVMDDESDEKEANSP | soluble |
| MASFITRAERSGNIFSRVTGLIRAGQLNWADRPLWYDVYVSSPPLTPPDWNVKLAKYDEPIRSIFYEEDVLRAKFYKTYRSTAGIQVDSSRTSVSQQFINEYKLVKSENAEATDDQLFEMTQKRLNENGIVLK | not soluble |
| MGSDKIHHHHHHMPSLREQQHPLIRQLADCIEAAWHQHLDLSPYHLPDELGYVEGRLEGEKLTIENRCYQTPQFRKMHLELANIGNMLDILHCVMFPRPQYNLPMFGCDLVGGRGQISAAIADLSPIQLERTLPESYTTALAQLPVLNFSQPRELPEWGNIFSDFCIFVRPGSPEEEAMFLSRVREFLDIHCMQAIASHPVSVEQVTQNLAGQHNYCTKQQQNDKTRRVLEKAFGPVWAENYMTTVLFDLPT | not soluble |
| TNSAVVDVSFGFPSLVGFTFMSEMVHQFKMTFPKARVSMYEAQLSAFLPAIRDGRLDFAIGTLSDEMKLQDLHVEPLFESEFVLVANRARIGNGTVRLASLQHEQWVLPETNMGYYSELLTTLQRSGIRRENIVNTDSVVTIYNLVLNAD | not soluble |
| MALSKTIATVTRRICERSAPTREIYLDRIAKAQANHPKRSFLGCANQAHGFAACGSIDKKRLKRNIVGNIGIITAYNDILSAHQPFESFPHLIKETARMFGGVAQVAGGVPAMCDGVTQGNTGMELSLFSRDVIAMATAIGLSHDMFDAALYLGVCDKIVPGLVIGALTFGHLPGIFVPAGPMTSGQGNDEKAKIRQLYAENKIDRQTLLESEARSYHGPGTCTFYGTANSNQVILEMMGLHMPGSSFINANTPLRDALTKEATKRVLEMIALGDSYSPIGLIVDERSFVNAVVGLNATGGSTNHAIHLIAMAAAAGILLTWHDIAEISSVVPLLARIYPNGLADINHFHAAGGMGFVIRELIEAGLVHEDVCTVFGKDLNAYAIEAKLCNDDNVVREPALNESANHKVLTGWRKPFQSDGGIRILLGDLGTAIMKVSSVKSEYWRIEAPVLVFNDQEELQEAFKAGVLNDKDFIAVIRYQGPKANGMPELHKLTTILGVLQDRGQKVALVTDGRMSGASGKIPAAIHVTPEALDDGPIARLQNGDVVCLDAHVGKLAILEDKVEFNARKITLPDLSKNEYGVGRELFRIFRHSVNRADQGASVLIA | not soluble |
| MQGTRVMHIFVLSKRKITMNVDNVKSQMRKGMLEYCIMLLLHKEPAYASDIIQKLKEAQLIVVEGTLYPLLTRLKNDDLLSYEWVESTQGPPRKYYKLTEKGEAFLGELEISWKELNETVNHIASR | not soluble |
| TPQQRRLSMARRTAASLGYNECVSYTFIDQASAALFGGGTDATMLENPISSEMSHMRPDLLPGLLAAAARNQARGFADLALFEAGPVFHGGEPGEQRAQIAGLLVGRTGPKDVHGAARAVDLYDAKADAEAVLAAMGAPAKVQILRDGDGWWHPGRHGRICLGPKKVLGVFGELHPRVLQAMDVKGPAVAFVLWPEEVPLPRKSGTTRAALAL | not soluble |
| MGSDKIHHHHHHMLPLDSLSDCASKSYLLTHLPDLNHRHLSSSVSTNSELIAAVQDGTLNATAMHLLTAETQSAGRGQHGRSWQSPRGNVYLSLYHPVHIPISGLLSLIIGVELAKMPIIQTLNDQLCAQGLTPIGVKWANDLGFYSYQYHHQSELHKILLANEMTPFHKLAGILIEPVTQAGKLVGIVMGVGLNVQATPKLTAQTCEGMSYQAISLQDIKQLLEPDKSASALLSLRELYQQMSKALMAAMTRFEHLGLEKPTGQTYNLDSFLKQFDSMDALAGLRLRITQEHNGQTETLTGYACGIDTHGCLQLRQDNGNISALFTGRIDVIDNA | not soluble |
| GPGSMETAIQQDPVYVRLGVFRRLHGSNEVEWLMLRRINREMRPPDIPPISLKLPGKWTLLYERYKEAAIRTLWEETGITVDPTSVFPTAQLYQTSPKYYWRVPVRYFVAEVPHDVRVEGPQVVPTQYMRNWDVRLLRQSPDPIDRAWAQLADPITGCAWMKAPMIDELQKPLRGEKYMATRYTPPPYSNLQEVVGLGDGDQDTQNKETEAADPNA | not soluble |
